Laboratory results published in patent US20250270343A1 (Alector, published 2025).
Where a chain is given by its changes, count along the chain named.

T1: full-length untagged human GPNMB expressed on cells (human, UniProt Q14956 23-572)
T1 sequence: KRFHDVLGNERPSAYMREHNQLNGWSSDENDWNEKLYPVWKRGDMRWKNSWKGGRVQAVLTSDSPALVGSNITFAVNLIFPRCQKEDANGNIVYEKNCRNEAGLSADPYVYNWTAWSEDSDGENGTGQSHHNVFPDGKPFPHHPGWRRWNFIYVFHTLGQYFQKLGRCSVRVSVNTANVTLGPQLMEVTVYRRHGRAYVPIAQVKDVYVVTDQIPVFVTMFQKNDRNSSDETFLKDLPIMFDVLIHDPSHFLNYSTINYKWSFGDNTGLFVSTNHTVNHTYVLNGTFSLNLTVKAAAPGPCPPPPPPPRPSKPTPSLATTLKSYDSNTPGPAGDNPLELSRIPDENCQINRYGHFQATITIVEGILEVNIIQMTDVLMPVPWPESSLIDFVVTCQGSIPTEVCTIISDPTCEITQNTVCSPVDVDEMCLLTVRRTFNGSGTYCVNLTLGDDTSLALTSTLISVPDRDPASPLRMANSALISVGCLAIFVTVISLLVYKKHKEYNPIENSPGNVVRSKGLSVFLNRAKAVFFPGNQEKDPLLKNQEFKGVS

T2: mouse GPNMB endogenously expressed on B16F10 cells (mouse, UniProt Q99P91 23-574)
T2 construct: whole, on cells; also called moGPNMB
T2 sequence (looked up): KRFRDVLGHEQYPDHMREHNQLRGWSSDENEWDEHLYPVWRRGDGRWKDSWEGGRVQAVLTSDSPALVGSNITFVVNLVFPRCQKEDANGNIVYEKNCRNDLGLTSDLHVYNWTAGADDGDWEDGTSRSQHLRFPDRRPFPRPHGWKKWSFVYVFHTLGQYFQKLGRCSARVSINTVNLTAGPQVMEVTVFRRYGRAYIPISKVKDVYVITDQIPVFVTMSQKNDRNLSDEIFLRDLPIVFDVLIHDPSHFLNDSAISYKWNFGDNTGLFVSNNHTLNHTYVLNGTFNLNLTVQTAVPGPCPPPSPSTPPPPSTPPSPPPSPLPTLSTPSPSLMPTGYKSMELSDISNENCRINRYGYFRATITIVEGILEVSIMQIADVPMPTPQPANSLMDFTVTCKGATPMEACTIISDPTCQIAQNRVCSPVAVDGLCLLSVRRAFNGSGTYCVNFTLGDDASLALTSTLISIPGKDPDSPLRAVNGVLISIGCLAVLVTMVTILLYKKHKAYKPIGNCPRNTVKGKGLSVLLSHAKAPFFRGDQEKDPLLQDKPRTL

T3: soluble cynomolgus GPNMB (recombinant extracellular domain) (cynomolgus, UniProt Q14956 23-499 (human entry), limits assumed)
T3 chain: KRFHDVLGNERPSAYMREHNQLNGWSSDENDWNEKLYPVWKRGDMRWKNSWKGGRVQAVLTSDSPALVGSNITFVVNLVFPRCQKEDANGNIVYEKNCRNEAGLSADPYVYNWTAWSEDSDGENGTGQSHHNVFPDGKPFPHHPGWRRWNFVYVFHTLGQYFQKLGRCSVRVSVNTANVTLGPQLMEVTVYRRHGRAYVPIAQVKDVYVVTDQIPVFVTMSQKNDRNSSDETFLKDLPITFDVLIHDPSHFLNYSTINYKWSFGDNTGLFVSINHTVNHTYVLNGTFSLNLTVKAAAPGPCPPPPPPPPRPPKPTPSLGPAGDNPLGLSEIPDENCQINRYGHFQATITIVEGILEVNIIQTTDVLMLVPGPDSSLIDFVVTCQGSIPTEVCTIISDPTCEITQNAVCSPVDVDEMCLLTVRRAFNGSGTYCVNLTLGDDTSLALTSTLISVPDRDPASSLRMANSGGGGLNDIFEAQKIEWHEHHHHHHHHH

B1: anti-GPNMB antibody GPN-43 (antibody, human IgG1, V domains shown)
VH: EVQLQQSGPELVKPGASVKISCKASGYTFTDYYMNWVRQSHGKSLEWIGDINPYHGGSTYNQKIKVKATLTVDKSSSTAYMELRSLTSEDSAVYYCARNWPYFDYWGQGTTLTVSS
VL: DIQMTQSPASLSASVGETVTITCRASENIYSFLVWYQQKQGKSPQLLVYNAKTLAEGVPSRFSGSGSGTQFSLKISSLQPEDFGSYYCQHHFGTPPYTFGGGTKLEIK
notes: chimeric
B2: anti-GPNMB antibody GPN-52 (antibody, human IgG1, V domains shown)
VH: DVQLQESGPGLVKPSQTVFLTCTVTGISITTGNYRWSWIRQFPGNKLEWIGYIYYSGTITYNPSLTSRITITRDTPKNEFFLEMNSLTAEDTATYYCARDLTHWYFDVWGTGTTVTVSS
VL: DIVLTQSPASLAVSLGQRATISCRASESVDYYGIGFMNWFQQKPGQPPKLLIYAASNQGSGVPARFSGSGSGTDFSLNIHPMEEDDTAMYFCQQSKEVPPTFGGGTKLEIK
notes: chimeric
B3: anti-GPNMB antibody GPN-42 (antibody, human IgG1, V domains shown)
VH: DVKLVESGEDLVKPGGSLKLSCAASGFTFSSYAMSWVRQTPEKRLEWVAYISSGGDYIYYADTVKGRFTISRDNARNTLYLQMSSLKSEDTAMYYCTRDRYYDYDVRDYYTMDYWGQGTSVTVSS
VL: DVMMTQTPLSLPVSLGDQASISCRSSQSLVHSNGNTYLHWFLQKPGQSPKLLIFRVSNRFSGVPDRFSGRGSGTDFTLKISRVEAEDLGVYFCSQTTHVPRTFGGGTTLEIK
notes: chimeric
B4: anti-GPNMB antibody GPN-35 (antibody, human IgG1, V domains shown)
VH: EVQLVESGGGSVRPGRSLKLSCAAAGFTFSDYYMTWVRQAPTKGLEWVASINHDGGGTYYRDSVKGRFTISRDNARSSLYLQMDSLRSEDTGTYYCTTRAGWHWGQGVMVTVSS
VL: DIQMTQSPASLSASLGETVSIECLASEDIYNYLTWYQQKPGKSPQVLIYSASGLQDGVPSRFSGSGSGRQYSLKINGLESEDAATYFCLQDSEYPLTFGSGTKLEIK
notes: chimeric
B5: anti-GPNMB antibody GPN-38 (antibody, human IgG1, V domains shown)
VH: QVQLQQPGAELVRPGTSVRLSCKASGYTFTSYWIHWVKQRPGRGLEWIGVIDPSDSYTNYNQQFNVKATLTVDTSSSAAYMQLSSLTSEDSAVYYCARGLITAVNWYFDVWGTGTTVTVSS
VL: DIQMTQSPASLSTSVGEIVTITCRASENIYSYLTWYQQKQGKSPQLLVYNAKTLAEGVPSRFSGSGSGTQFSLKINSLQPEDFGTYYCQHHYGTPLTFGSGTKLEIK
notes: chimeric
B6: anti-GPNMB antibody GPN-86 (antibody, V domains shown)
VH: QVQLQESGPGLVKPSETLSLTCTVSGISITTGNYRWSWIRQPPGKGLEWIGYIDYSGTITYNPSLKSRVTITRDTSKNQFSLELSSVTAADTAVYYCARDLTHWYFDVWGQGTLVTVSS
VL: DIVMTQSPDSLAVSLGERATINCKSSRSVDYYGIGFLNWYQQKPGQPPKLLIYATSKQGSGVPDRFSGSGSGTDFTLTISSLQAEDVAVYYCQQQKEVPPTFGGGTKVEIK
B7: anti-GPNMB antibody GPN-41 (antibody, human IgG1, V domains shown)
VH: QLQLQQSGTEVVKPGASVKIPCKASGYAFSSYWMNWVKQRPGKGLEWIGQIYPGDGDTNDNGKFEGKATLTVDKSSNTAYIQLSSLTSEDSAVYFCARSPLHLRGSMDYWGQGTSVTVSS
VL: SIVMTQTPKFLLVSAGDRVTITCKASQSVSNDVAWFQQKPGQSPELLIYSASNRYTGVPDRFTASGYGTDFTFTISAVQAEDLAVYFCQQNYYSPFTFGGGTRLEIK
notes: chimeric
B8: anti-GPNMB antibody GPN-65 (antibody, human IgG1, V domains shown)
VH: B7 VH
VL: B7 VL with A64G, A77T
notes: chimeric

What was measured:
[1] = biological target: T1, full-length untagged human GPNMB …; test: cell-based or functional assay
[2] = biological target: T2, mouse GPNMB endogenously expressed on …; test: FACS titration, B16F10 cells
Description: Cell-based binding measurements were also performed to measure the apparent affinities of anti-GPNMB antibodies of the present disclosure to cell-surface expressed GPNMB. Serial dilutions of the monoclonal anti-GPNMB antibodies were added to 100,000 Freestyle293-huGPNMB+ or B16F10 cells and allowed to achieve binding equilibrium at 4° C. After addition of fluorescently labeled secondary antibody and brief washing steps, MFI values as a function of titrated antibody concentration was recorded via FACS analysis. Curves were fit using nonlinear regression analysis with Graphpad Prism 6 software.

[3] = biological target: T3, soluble cynomolgus GPNMB (recombinant …); test: SPR Carterra, Ab immobilized
How it was run: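 Antibodies amine-coupled on HC200M chip in a 96-spot array; recombinant GPNMB ECD analytes injected at 2.5–600 nM, lowest to highest, without regeneration. Running buffer HBS-EP+ with 0.5 mg/ml BSA; two buffer blanks between species series. Kinetics fitted to yield affinity estimates.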

[4] = biological target: T1, full-length untagged human GPNMB …; test: cell-based or functional assay; remark: listed apart in the source
[5] = biological target: T1, full-length untagged human GPNMB …; test: cell-based or functional assay; remark: listed apart in the source
[6] = biological target: T1, full-length untagged human GPNMB …; test: cell-based or functional assay; remark: listed apart in the source

Row | Binder | CD40 (FoB) [1] [FoB] | CD80 (FoB) [1] [FoB] | PDL1 (FoB) [1] [FoB] | EC50 [2] [nM] | further results
1 | B1 | 1.06 | 1.08 | 1.05 | 36.2 | GCase (FoB) [1]: 1.01 FoB
2 | B2 | 1.53 | 1.46 | 1.44 | 1.6 | Kd [3]: 40.1 nM; koff [3]: 0.0036 s⁻¹; kon [3]: 90000 M⁻¹ s⁻¹
3 | B3 |  |  |  | 76.5 | 
4 | B4 | 1.31 | 1.22 | 1.3 | 2.29 | GCase (FoB) [1]: 0.9 FoB
5 | B5 | 1.01 | 1.03 | 1.03 | 5.38 | 
6 | B6 |  |  |  |  | Inflammasome: Fold Decrease IL-1β (max response at 0.3 µg/ml) [4]: 0.404 fold; EC50 GCase [5]: 0.166 nM; EC50 Lyso Tracker [5]: 1.2 nM; Fold Decrease Lyso Tracker (max response at 1 µg/ml) [5]: 0.731 fold; Fold Increase GCase (max response at 1 µg/ml) [5]: 1.34 fold; EC50 PDL1 [6]: 1.37 nM; Fold Increase CD40 (max response at 1 µg/ml) [6]: 2.15 fold; Fold Increase PDL1 (max response at 1 µg/ml) [6]: 4.57 fold
7 | B7 |  |  |  | 2.62 | 
8 | B8 |  |  |  | 3.23 | 
